From US20220089710A1, “Method of Treating Signs and Symptoms of Osteoarthritis” (Pfizer Inc., priority 2019, published 2022)

Test system: patients with osteoarthritis (OA) of the knee or hip
Test: Example 3: adjudicated joint safety outcomes (patient-level and joint-level) and total joint replacements, Safety Population
Format: in vivo, human
Conditions: for rapidly progressive OA (types 1 and 2 combined): % of patients: any adjudicated RPOA
Description: Central radiology readers (Central Readers) may be board certified radiologists or have the international equivalent as musculoskeletal radiologists. The Central Readers may be governed by an imaging atlas and an imaging Charter which includes a specific description of the scope of their responsibilities. Central Readers may review the radiology images at Screening for assessment of eligibility (including determination of Kellgren-Lawrence Grade) and identification of exclusionary joint conditions such as rapidly progressive osteoarthritis, atrophic or hypotrophic osteoarthritis, subchondral insufficiency fractures (spontaneous osteonecrosis of the knee [SPONK]), primary osteonecrosis and pathological fractures. After start of treatment, the Central Reader may review radiology images for diagnosis of joint conditions that would warrant further evaluation by the Adjudication Committee such as possible or probable rapidly progressive osteoarthritis, subchondral insufficiency fractures (spontaneous osteonecrosis of the knee [SPONK]), primary osteonecrosis or pathological fracture.
For subjects who are identified with a possible or probable joint event (i.e., rapidly progressive osteoarthritis, subchondral insufficiency fractures, spontaneous osteonecrosis of the knee (SPONK), primary osteonecrosis or pathological fracture) and subjects undergoing total joint replacement for any reason, all images and other source documentation may be provided to the blinded Adjudication Committee for review and adjudication of the event. The Adjudication Committee's assessment of the event may represent the final classification of the event.
This study was designed with a total (post-randomization) duration of 80 weeks and consisted of three periods: Screening (up to a maximum of 37 days), Double-blind Treatment (56 weeks), and Safety Follow-up (24 weeks) (FIG. 1). The Screening Period included a Washout Period (lasting 2-30 days) if required, and an Initial Pain Assessment Period (7 days prior to Randomization/Baseline; minimum 3 days).

[1] = 2.5 mg SC, observation time-adjusted analysis
[2] = 2.5 mg SC, primary outcome per subject
[3] = 5 mg SC, observation time-adjusted analysis
[4] = 5 mg SC, primary outcome per subject
[5] = tanezumab 2.5 mg (N = 1002), joint-level
[6] = tanezumab 5 mg (N = 998), joint-level

tanezumab: humanized immunoglobulin G Type 2 (IgG2) monoclonal antibody directed against human nerve growth factor (NGF); SEQ ID NOs: 9 or 11 and 10
Observation time-adjusted incidence of patients with ≥1 reported TJR (2.5 mg SC): (51.8) /1000 patient-years
Pathological Fracture: observation time-adjusted rate (2.5 mg SC): (0) /1000 patient-years
Patients analyzed by the Adjudication Committee: n (2.5 mg SC): 115
Primary Composite Joint Safety Endpoint: rate difference vs. NSAID (2.5 mg SC): 22.5
Primary Osteonecrosis: observation time-adjusted rate (2.5 mg SC): (0) /1000 patient-years
Rapidly Progressive OA type 1: observation time-adjusted rate (2.5 mg SC): (28.4) /1000 patient-years
Rapidly Progressive OA type 1: rate difference vs. NSAID (2.5 mg SC): 17.6
Rapidly Progressive OA type 2: rate difference vs. NSAID (2.5 mg SC): 1.9
Rapidly Progressive OA: rate difference vs. NSAID (2.5 mg SC): 19.6
Secondary Composite Joint Safety Endpoint: observation time-adjusted rate (2.5 mg SC): (8.8) /1000 patient-years
Secondary Composite Joint Safety Endpoint: rate difference vs. NSAID (2.5 mg SC): 3.8
Subchondral Insufficiency Fracture: observation time-adjusted rate (2.5 mg SC): (5.8) /1000 patient-years
Subchondral Insufficiency Fracture: rate difference vs. NSAID (2.5 mg SC): 1.9
TJR: rate difference vs. NSAID (2.5 mg SC): 27.2
patients with ≥1 reported TJR: number (2.5 mg SC): 53
rapidly progressive OA (types 1 and 2 combined): % of patients (2.5 mg SC): 3.2%
Pathological Fracture: n [1]: 0
Primary Composite Joint Safety Endpoint: n [1]: 38
Primary Osteonecrosis: n [1]: 0
Rapidly Progressive OA type 1: n [1]: 29
Rapidly Progressive OA: n [1]: 32
Secondary Composite Joint Safety Endpoint: n [1]: 9
Subchondral Insufficiency Fracture: n [1]: 6
Normal Progression of OA: % [2]: (6.6%)
Normal Progression of OA: n [2]: 66
Not enough information to determine Rapid vs. Normal Progression of OA: % [2]: (0.2%)
Not enough information to determine Rapid vs. Normal Progression of OA: n [2]: 2
Other Joint Outcome: % [2]: (0.9%)
Other Joint Outcome: n [2]: 9
Pathological Fracture: n [2]: 0
Primary Composite Joint Safety Endpoint: % [2]: 3.8% and (3.8%)
Primary Composite Joint Safety Endpoint: n [2]: 38
Primary Osteonecrosis: n [2]: 0
Rapidly Progressive OA type 1: % [2]: (2.9%)
Rapidly Progressive OA type 1: n [2]: 29
Rapidly Progressive OA type 2: % [2]: (0.3%)
Rapidly Progressive OA: % [2]: (3.2%)
Rapidly Progressive OA: n [2]: 32
Secondary Composite Joint Safety Endpoint: % [2]: (0.9%)
Secondary Composite Joint Safety Endpoint: n [2]: 9
Subchondral Insufficiency Fracture: % [2]: (0.6%)
Subchondral Insufficiency Fracture: n [2]: 6
Observation time-adjusted incidence of patients with ≥1 reported TJR (5 mg SC): (78.7) /1000 patient-years
Pathological Fracture: observation time-adjusted rate (5 mg SC): (0) /1000 patient-years
Patients analyzed by the Adjudication Committee: n (5 mg SC): 171
Primary Composite Joint Safety Endpoint: rate difference vs. NSAID (5 mg SC): 56.7
Primary Osteonecrosis: observation time-adjusted rate (5 mg SC): (1.0) /1000 patient-years
Rapidly Progressive OA type 1: observation time-adjusted rate (5 mg SC): (49.1) /1000 patient-years
Rapidly Progressive OA type 1: rate difference vs. NSAID (5 mg SC): 38.2
Rapidly Progressive OA type 2: rate difference vs. NSAID (5 mg SC): 12.9
Rapidly Progressive OA: rate difference vs. NSAID (5 mg SC): 51.5
Secondary Composite Joint Safety Endpoint: observation time-adjusted rate (5 mg SC): (21.8) /1000 patient-years
Secondary Composite Joint Safety Endpoint: rate difference vs. NSAID (5 mg SC): 16.9
Subchondral Insufficiency Fracture: observation time-adjusted rate (5 mg SC): (6.9) /1000 patient-years
Subchondral Insufficiency Fracture: rate difference vs. NSAID (5 mg SC): 3.0
TJR: rate difference vs. NSAID (5 mg SC): 54.0
patients with ≥1 reported TJR: number (5 mg SC): 79
rapidly progressive OA (types 1 and 2 combined): % of patients (5 mg SC): 6.3%
Pathological Fracture: n [3]: 0
Primary Composite Joint Safety Endpoint: n [3]: 71
Primary Osteonecrosis: n [3]: 1
Rapidly Progressive OA type 1: n [3]: 49
Rapidly Progressive OA type 2: n [3]: 14
Rapidly Progressive OA: n [3]: 63
Secondary Composite Joint Safety Endpoint: n [3]: 22
Subchondral Insufficiency Fracture: n [3]: 7
Normal Progression of OA: % [4]: (7.9%)
Normal Progression of OA: n [4]: 79
Not enough information to determine Rapid vs. Normal Progression of OA: n [4]: 0
Other Joint Outcome: % [4]: (2.1%)
Other Joint Outcome: n [4]: 21
Pathological Fracture: n [4]: 0
Primary Composite Joint Safety Endpoint: % [4]: 7.1% and (7.1%)
Primary Composite Joint Safety Endpoint: n [4]: 71
Primary Osteonecrosis: % [4]: (0.1%)
Primary Osteonecrosis: n [4]: 1
Rapidly Progressive OA type 1: % [4]: (4.9%)
Rapidly Progressive OA type 1: n [4]: 49
Rapidly Progressive OA type 2: % [4]: 1.4% and (1.4%)
Rapidly Progressive OA type 2: n [4]: 14
Rapidly Progressive OA: % [4]: (6.3%)
Rapidly Progressive OA: n [4]: 63
Secondary Composite Joint Safety Endpoint: % [4]: (2.2%)
Secondary Composite Joint Safety Endpoint: n [4]: 22
Subchondral Insufficiency Fracture: % [4]: (0.7%)
Subchondral Insufficiency Fracture: n [4]: 7
Rapidly Progressive OA type 1: Associated with TJR No, % [5]: (90.0%)
Rapidly Progressive OA type 1: Associated with TJR Yes, % [5]: (10.0%)
Rapidly Progressive OA type 1: Baseline Kellgren-Lawrence Grade of Affected Joint 0, % [5]: (3.3%)
Rapidly Progressive OA type 1: Baseline Kellgren-Lawrence Grade of Affected Joint 1, % [5]: (20.0%)
Rapidly Progressive OA type 1: Baseline Kellgren-Lawrence Grade of Affected Joint 2, % [5]: (36.7%)
Rapidly Progressive OA type 1: Baseline Kellgren-Lawrence Grade of Affected Joint 3, % [5]: (40.0%)
Rapidly Progressive OA type 1: Joint affected Hip, % [5]: (13.3%)
Rapidly Progressive OA type 1: Joint affected Knee, % [5]: (86.7%)
Rapidly Progressive OA type 2: Associated with TJR No, % [5]: (66.7%)
Rapidly Progressive OA type 2: Associated with TJR Yes, % [5]: (33.3%)
Rapidly Progressive OA type 2: Baseline Kellgren-Lawrence Grade of Affected Joint 3, % [5]: (33.3%)
Rapidly Progressive OA type 2: Baseline Kellgren-Lawrence Grade of Affected Joint 4, % [5]: (66.7%)
Rapidly Progressive OA type 2: Joint affected Hip, % [5]: (33.3%)
Rapidly Progressive OA type 2: Joint affected Knee, % [5]: (66.7%)
Subchondral Insufficiency Fracture: Associated with TJR No, % [5]: (100.0%)
Subchondral Insufficiency Fracture: Baseline Kellgren-Lawrence Grade of Affected Joint 2, % [5]: (33.3%)
Subchondral Insufficiency Fracture: Baseline Kellgren-Lawrence Grade of Affected Joint 3, % [5]: (66.7%)
Subchondral Insufficiency Fracture: Joint affected Hip, % [5]: (33.3%)
Subchondral Insufficiency Fracture: Joint affected Knee, % [5]: (66.7%)
Rapidly Progressive OA type 1: Associated with TJR No, % [6]: (84.9%)
Rapidly Progressive OA type 1: Associated with TJR Yes, % [6]: (15.1%)
Rapidly Progressive OA type 1: Baseline Kellgren-Lawrence Grade of Affected Joint 0, % [6]: (3.8%)
Rapidly Progressive OA type 1: Baseline Kellgren-Lawrence Grade of Affected Joint 1, % [6]: (20.8%)
Rapidly Progressive OA type 1: Baseline Kellgren-Lawrence Grade of Affected Joint 2, % [6]: (43.4%)
Rapidly Progressive OA type 1: Baseline Kellgren-Lawrence Grade of Affected Joint 3, % [6]: (30.2%)
Rapidly Progressive OA type 1: Baseline Kellgren-Lawrence Grade of Affected Joint Not Available, % [6]: (1.9%)
Rapidly Progressive OA type 1: Joint affected Hip, % [6]: (15.1%)
Rapidly Progressive OA type 1: Joint affected Knee, % [6]: (83.0%)
Rapidly Progressive OA type 1: Joint affected Shoulder, % [6]: (1.9%)
Rapidly Progressive OA type 2: Associated with TJR No, % [6]: (43.8%)
Rapidly Progressive OA type 2: Associated with TJR Yes, % [6]: (56.3%)
Rapidly Progressive OA type 2: Baseline Kellgren-Lawrence Grade of Affected Joint 0, % [6]: (12.5%)
Rapidly Progressive OA type 2: Baseline Kellgren-Lawrence Grade of Affected Joint 1, % [6]: (6.3%)
Rapidly Progressive OA type 2: Baseline Kellgren-Lawrence Grade of Affected Joint 2, % [6]: (6.3%)
Rapidly Progressive OA type 2: Baseline Kellgren-Lawrence Grade of Affected Joint 3, % [6]: (31.3%)
Rapidly Progressive OA type 2: Baseline Kellgren-Lawrence Grade of Affected Joint 4, % [6]: (37.5%)
Rapidly Progressive OA type 2: Baseline Kellgren-Lawrence Grade of Affected Joint Not Available, % [6]: (6.3%)
Rapidly Progressive OA type 2: Joint affected Hip, % [6]: (43.8%)
Rapidly Progressive OA type 2: Joint affected Knee, % [6]: (50.0%)
Rapidly Progressive OA type 2: Joint affected Shoulder, % [6]: (6.3%)
Subchondral Insufficiency Fracture: Associated with TJR No, % [6]: (57.1%)
Subchondral Insufficiency Fracture: Associated with TJR Yes, % [6]: (42.9%)
Subchondral Insufficiency Fracture: Baseline Kellgren-Lawrence Grade of Affected Joint 0, % [6]: (14.3%)
Subchondral Insufficiency Fracture: Baseline Kellgren-Lawrence Grade of Affected Joint 1, % [6]: (14.3%)
Subchondral Insufficiency Fracture: Baseline Kellgren-Lawrence Grade of Affected Joint 2, % [6]: (57.1%)
Subchondral Insufficiency Fracture: Baseline Kellgren-Lawrence Grade of Affected Joint 3, % [6]: (14.3%)
Subchondral Insufficiency Fracture: Joint affected Hip, % [6]: (14.3%)
Subchondral Insufficiency Fracture: Joint affected Knee, % [6]: (85.7%)
